Source: the DeepSol protein solubility set

experiment: soluble on expression in E. coli; label from the status in PepcDB or PDB records

Row | Sequence | soluble on expression in E. coli
1 | SSDLEDDETPQLSAHALAALQEFYAEQKQQIEPGEDDKYNIGIIEENWQLSQFWYSQETALQLAQEAIAAVGEGGRIACVSAPSVYQKLRELCRENFSIYIFEYDKRFAMYGEEFIFYDYNNPLDLPERIAAHSFDIVIADPPYLSEECLRKTSETVKYLTRGKILLCTGAIMEEQAAELLGVKMCTFVPRHTRNLANEFRCYVNYDSGLDCGI | soluble
2 | MPSARLQQQFIRLWQCCEGKSQDTTLNELAALLSCSRRHMRTLLNTMQDRGWLTWEAEVGRGKRSRLTFLYTGLALQQQRAEDLLEQDRIDQLVQLVGDKATVRQMLVSHLGRSFRQGRHILRVLYYRPLRNLLPGSALRRSETHIARQIFSSLTRINEENGELEADIAHHWQQISPLHWRFFLRPGVHFHHGRELEMDDVIASLKRINTLPLYSHIADIVSPTPWTLDIHLTQPDRWLPLLLGQVPAMILPREWETLSNFASHPIGTGPYAVIRNSTNQLKIQAFDDFFGYRALIDEVNVWVLPEIADEPAGGLMLKGPQGEEKEIESRLEEGCYYLLFDSRTHRGANQQVRDWVSYVLSPTNLVYFAEEQYQQLWFPAYGLLPRWHHARTIKSEKPAGLESLTLTFYQDHSEHRVIAGIMQQILASHQVTLKIKEIDYDQWHTGEIESDIWLNSANFTLPLDFSVFAHLCEVPLLQHCIPIDWQADAARWRNGEMNLANWCQQLVASKAMVPLLHHWLIIQGQRSMRGLRMNTLGWFDFKSAWFAPPDP | not soluble
3 | MSWEGFKKAINRAGHSVIIKNVDKTIDKEYDMEERRYKVLQRAGEALQKEAKGFLDSLRAVTASQTTIAEVISNLYDDSKYVAGGGYNVGNYYLQCVQDFDSETVKQLDGPLRETVLDPITKFSTYFKEIEEAIKKRDHKKQDFDAAKAKVRRLVDKPAKDASKLPRAEKELSLAKDIFENLNNQLKTELPQLVSLRVPYFDPSFEALIKIQLRFCTDGYTRLAQIQQYLDQQSRDDYANGLLDTKIEELLGQMTSLDICALGIK | not soluble
4 | MGSDKIHHHHHHMQNLDALLIFARVAEMTSFTRAAESLGIQKGRVSMVIRKLERDVGVALLHRTTRSVQLTEDGRAFYSRARDLLAEVQELQSMFSGNGTRLRGRLRVDMPTELARSVVVPALPQLMAAHPELELELSSTDRRVDLVQEGFDCVIRLGPITDDTLIARPLGKLRMTNAASPGYLARYGIPHTLDDLRTQGHRMVHYTLTLGARHPGWEYPNGDGYASLPLPSAMQVNSVQTYHAAGLAGIGLIQAGYSALAHHIESGALVEVLPDLRPEPLAASLVVAHRRNLSPRVRAFMDWIEGVLAPYLD | not soluble
5 | MSLKFHSPYLPLIKLIIVVKTPLELITDNLLPTIKVLIAKKLRELGMSQNRIAILLGVTQPAVKQYLDEDENFQYEKLRELGLKDEEIEDITQDLVNILNKNDTKSAMYYITDIGLRYLSELKFCKFHKENDKYIPQDCDICRYIYRQNEEERMEIALSMLQNEFVTPLIPEVLSNLAFARKNPKGINDVLAVEGRITKVKGIPTPASNPSWGSSKHLATILLKIMQKDPSIRSIMNIKYDKKIDEALHFLNFRIVYVGPSDENDDESISNLIYSAFYSGIDCVVHLGGKGLEPITYVLGKDPVEVVKKVIEIGKKYRELTENEGHHHHHH | soluble
6 | MEEETIKVENLDDSITIDRNPVPLAFCARPTLPAKIGMKTEDGIVDQLLDLVDPITVVNPTEIRQAPSLKSFGCDTESEFEFSGDDSDFENINDLRAGALDSDEEFDRLVKFSAKIIEKTHKSEYPDENGKKQRKPKKSQKTRNVHEYDDMPPLENLSIECKGQLLEFGFVSKVVDCQVVIISTCTEVLDFDSFLFDQKGNALGQIYDIFGQVKNPQYVIRFNSCEEASMIPIDMKVYYAPTEEQFSKTPFKGLNLAAANRDAIKSLNRRIDHQEAVAKAGETMAQVGIGSDVEFSDDEAEKEFKRTTYTQPASQMSRGFDSNRGRKRDRRGGQKVRFSAQNPPARSDNLGPIPQQPSAPPPPARPAQSTESNPYAEFGCHSGFNGRFGI | not soluble
7 | MGLIMAKLFQSWWIGKKYKIIVVGLDNAGKTTILYNYVTKDQVETKPTIGSNVEEVSYRNLDFVIWDIGGQESLRKSWSTYYVQTDVVIVVIDSSDTTRIPIMKEQLHNMLQHEDLARAHILVLANKQDLPGAMNPAEVSTQLGLQTLRGARKWQINGCCAVKGEGLPEALEWIANNL | not soluble
8 | MGSDKIHHHHHHMKHGILVAYKPKGPTSHDVVDEVRKKLKTRKVGHGGTLDPFACGVLIIGVNQGTRILEFYKDLKKVYWVKMRLGLITETFDITGEVVEERECNVTEEEIREAIFSFVGEYDQVPPAYSAKKYKGERLYKLAREGKIINLPPKRVKIFKIWDVNIEGRDVSFRVEVSPGTYIRSLCMDIGYKLGCGATAVELVRESVGPHTIEESLNVFEAAPEEIENRIIPLEKCLEWLPRVVVHQESTKMILNGSQIHLEMLKEWDGFKKGEVVRVFNEEGRLLALAEAERNSSFLETLRKHERNERVLTLRKVFNTR | not soluble
9 | GKHTVPYTISVDGITALHRTYFVFPENKKVLYQEIDSKVKNELASQRGVTTEKINNAQTATYTLTLNDGNKKVVNLKKNDDAKNSIDPSTIKQIQIVVK | soluble
10 | MGSDKIHHHHHHMEEHFLYVPYYNRTRRIRVLLPKDYYTDTWDSYAVLYMHDGQNIFYSKESYSGYSWKIIPTIKHHKEFPKIIIVGIDNSGVDRLDEYGPWRTDVGSSPEIKKCGGKGMEYGKWVVEIVKPFIDQHYRTKPQKEHTLLAGSSMGGIITAYMGSAYPQIFGHLGVFSLASWFSEKDFLHFIHHNPIDKNSKVFIQVGTKEGDDVDSLFISNMNQAYIDCTLHYYQALLRTGHPLDNIRLRMMANEIHHEKHWADHFVEFLHFSLL | not soluble
11 | MSLKLVKPKKFLGQHFLKDLKVAQDIADTVDTFPELPVLEVGPGMGVLTQFLVKKDRLVKVVEVDYESVAYLREAYPSLEDHIIEDDFLKMNLHRLFDGKPFVLTGNYPYNISSQIFFKMLENKDIIPCCTGMIQKEVAERIAAGPGSKTYGILSVLIQAWYKVEYLFTVSEHVFNPPPKVKSAVIRMTRNDTKEGHHHHHH | not soluble
12 | MAAEFVRKFQSFSESDKQWRAREEFIIRNLNRFEDESEIDQLLALSMVWANHVFMGCRYSNELLEKVCGMAEGIVVEDAPHFTTRDEIMKQRNQ | soluble
13 | MGSDKIHHHHHHMTETTLPPLIQQMLQPGFYPHEVTEPIQLIQTHVSSVLLTGEYAYKLKKPVNFGFLDFSTLEKRQHFCQEELRLNQRGAAELYLEVLPISLVGEQYTLGGTGEAVEYVLKMRQFPQDGLFSELFAQGKLTESHLEELGKVVAQYHAKTETNDYIRSFGEVPQVQAAFDENYQQTEKYIGGPQTQLQFDETKAYTERFFAEKQELFQRRIQNNYIRECHGDLHLRNICLWQDKILLFDCIEFNEPFRFVDVMFDVAYAVMDLDAQQRPDLSNAYLNTYLEQTGDWEGLEVLPIYLNRQSYVRAKVTSFLLDDPSVPATVKEEATKTASTYYKLAWEYTKPKQGKLILMSGLSGSGKSTTAKYLARQLDAIQIRSDAVRKHLGGISLWERGGDDLYTPEMTQKTYARLLNLGTILANQGYTVILDAKYDKQNLRQEAIAQAEKHHLPLQIIHCTAPIEVIQERLIKRTGDIADATVDLLSSQLQQTEPFTDQEKPYVQTWDTTQPPHVIGNR | not soluble
14 | MELFELFILDANGVPRGKLLHRDELLAVYRSGRPLPSTILGLTMNGEDVEDSGLVWDVGDIDCRAYPLSGSLVRLPWRQIPTAAVQVSMHPSEGLPASVADPRHLLVRTIDALKSEGYHPVMAAELEFYLLDRERDANGRPQPARDADGGRPRATQVYGLRELEQIEPFLADLYAACKAQGLPARTAISEYAPGQVEITLDHGDALAAMDQAIRYKRLVKGIAHKHGMLACFMAKPFDDLAGTGMHLHVSLADEQGHNLFASDDPAGTPLLRQAVGGMLASLLDSLLLFCPNANSYRRFQANSYAPLAQTWGVDNRTVSLRVPGGPASSRHIEHRICGADANPYLAAAALLAGVHRGIREGIDPGAPVEGNGYAQAGKRLPTDWLTALDTLQGSEWAREAFGEPFLGVYLAVKRAEYRQFMGEVGEQDWRWYL | not soluble
15 | SDTGVIEGGLNVTLTIRLLMHGKEVGSIIGKKGESVKKMREESGARINISEGNCPERIITLAGPTNAIFKAFAMIIDKLEEDISSSMTNSTAASRPPVTLRLVVPASQCGSLIGKGGCKIKEIRESTGAQVQVAGDMLPNSTERAITIAGIPQSIIECVKQICVVMLETLSQSPPKGVTIPYRPKPSSSPVIFAGGQDRYSTGSDSASFPHTTPSMCLNPDLEGPPLEAYTIQGQYAIPQPDLTKLHQLAMQQSHFPMTHGNTGFSGIESSSPEVKGYWAGLDASAQTTSHELTIPNDLIGCIIGRQGAKINEIRQMSGAQIKIANPVEGSTDRQVTITGSAASISLAQYLINVRLSSETGGMGSS | soluble
16 | GMASEFDLIQRYFRRAHPSAVLGVGDDAALIQPSPGMELAVSADMLVANTHFYPNIDPWLIGWKSLAVNISDMAAMGAQPRWATLTIALPEADEDWISKFAAGFFACAAQFDIALIGGDTTRGPLTISVQIMGETPPGASLLRSTARADDDIWVSGPLGDAALALAAIQGRYPLSDTELAACGKALHQPQPRVVLGQALRGLAHSALDISDGLLADLGHILEHSQVGAEVWLKAIPKSEVVSAHSQEVAIQKMILSGGDDYELCFTASTQHRQQIADIGRQLSLDMAVIGRITDTQQLVIHGLDDAPLTLKEHGFDHFA | soluble
17 | MRLMKSYKNLKEEVWDTNRCSGCGACVAVCPVNNLYFREESPVKFECDECSCIIVPADIVEHPISAEFCKTVVYDVPCGACYDACPRIKKSAIPKPKGLGNILKAVRAKASIEIKNAQNGGVVTAILANAFDEGLIDGAIVMMDDKWTLEPESYLALSKEDVLKSAGSKYLWKGPILKALKTAVMEKKLKKLAVVGTPCVINAIYQILSSDNDLLKPFREAIRLKIALFCFETYDYSKMIKKLNEDGIEPWEVKKMDIESGKLKITLINGNTVEYKLKDVESAMRNGCKVCGDFTGLTSDISVGNVGTEKGYSTVLIRNKWGEGFFKRAVYNGYITYDENVDLEAVEKLVELKKKRVKKDLEHHHHHH | soluble
18 | MREIVWVHSQRIAPYKTLILNEFCYYPLELDPTPFNALIFTSKNAVFSLLETLKNSPKLKMLQNIPAYALSEPTAKTLQDHHFKVAFMGEKAHGKEFVQEIFPLLEKKSVLYLRAKEIVSSLDTILLEHGIDFKQAVVYENKLKHLTLSEQNALKPKEKSILIFTAISHAKAFLHYFEFLENYTAISIGNTTALYLQEQGIPSYIAKKPSLEACLELALSLRIKEC | not soluble
19 | MSALIVSDIDGTLIDSRERIPSAVKESLAAAQRAGVSFVVATGRPARWIHPIIDQLYTPPTLCVCANGAVIYDPACDSITHRRELAPDAMRTVVRVAREALSDLGGCGVGVERAGVSAHDMPGELFMVTPDFVHSWESIEHSTVELDRVLARSAVKLLLRNDALTSEQMHRLVAPVVPADVAHVTYSMPDGLLEVMQPGVNKSSALDVVAQDLGVDPADAIAFGDMLNDLEMIRWAGTGVAMGNACDQLQRAADVVAPTNDEAGIAVVLREWLQG | not soluble
20 | MSAKTKFKSPAFEPIHSAASGLFSVDAIPQETMRSFDTACLSSIKDLQPLEIKALREKLNVSQPVFARYLNTSVSTVQKWESGAKRPSGMSLKLLNVVQKHGLKVLV | not soluble
21 | MGSDKIHHHHHHMDYRKLPHGNEKVSTIGIGSGSLKETTSKEIEDIVTYSMEEGVNLIDTVMYDTTAAEPINNALKGHRDDMLMQIHLGVWYPKGTYSRTRVPRNVKKGFEQELKKYSTNYADIGLISYVDRVKDFEKIMSNGIFDYAKKLKQDGTIRYLGISSHSEEICKLFIETGEIDVIMFSINAAYDFKPSWGKLNLKNERMELYQECEKQGVALTVMKAYGGGQLLNEKTSPFNHAMTVPQCIQYALDRPGVVSCISGVSSKADLDEALKYYSTSEKDRDYSFIASLPHRDIMGTCIYCNHCQPCPSGIDIGIVNKYLDLAKAGDELAKDHYLKLSKNANDCTNCGVCEKNCPFHVDIRGRMLKAKNYFDKTNSVKK | not soluble
